This note sets out measurements from CN106432498A (UNIV ANHUI, dated 2017).

Usually Kd stands for a measure of binding affinity in units of concentration. A word on the koff: it is the first-order rate constant of dissociation. As a reminder, the kon is a measure of how fast the partners come together.

The target in assay [1] is 人尿激酶型纤溶酶原激活物受体 (human uPAR) on SW480 cells (human) (UniProt Q03405). Put plainly: flow cytometry on SW480 cells, antibody at 5 μg/ml, FITC goat anti-human IgG.
For assay [2], the target named is T1, 重组人uPAR蛋白 (recombinant human uPAR protein, uPAR-ECD) (human, UniProt Q03405 23-303, limits assumed).
T1 construct: extracellular domain; Bought reagent
The experiment in a line: BLI (Fortebio), antibody captured on anti-human IgG Fc sensor, uPAR-ECD at 0.25-1 μM. In general terms: Biolayer interferometry detects binding as a change in optical thickness at a sensor tip.

T1 sequence (Q03405 23-303 limits assumed): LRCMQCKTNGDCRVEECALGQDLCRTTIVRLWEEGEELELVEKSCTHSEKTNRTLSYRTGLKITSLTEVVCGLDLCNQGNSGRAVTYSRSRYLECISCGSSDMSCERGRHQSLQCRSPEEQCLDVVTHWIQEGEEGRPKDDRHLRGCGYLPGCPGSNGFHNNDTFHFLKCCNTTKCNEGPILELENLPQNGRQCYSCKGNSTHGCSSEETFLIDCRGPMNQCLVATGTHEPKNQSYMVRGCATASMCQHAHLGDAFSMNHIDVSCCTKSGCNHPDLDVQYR

B1: H2BL2抗体 (humanized anti-uPAR antibody H2BL2) (antibody, human IgG1, kappa, V domains shown)
VH: EVQLVQSGAEVKKPGSSVKVSCKASGYTFTDYYIHWVRQAPGQGLEWIGWIFHGSDNTEYNEKFKSKATITADESTSTAYMELSSLRSEDTAVFYCARWGPHWYFDAWGRGTLVTVSS
VL: DIQMTQSPSTLSASVGDRVTITCRASSSVSYIHWYQQKPGRAPKPLMYEASSRATGVPSRFSGSGSGTEYTLTISSLQSDDFATYYCQQWNYPFTFGQGTKLEIKR
notes: also called H2BL2溶液
In assay [1], B1 displayed a 平均荧光强度 of 4.44 and a 阳性率 of 99.6%. Besides, in assay [2], the Kd was 6.32 nM, the off-rate (koff) amounted to 0.000454 s⁻¹ and the kon worked out at 71800 M⁻¹ s⁻¹.

B2: ATN615抗体 (monoclonal antibody targeting uPAR) (antibody, V domains shown)
VH: GVKLQQSGPEVVKPGASVKISCKASGYSFTNFYIHWVKQRPGQGLEWIGWIFHGSDNTEYNEKFKDKATLTADTSSSTAYMQLSSLTSEDSAVYFCARWGPHWYFDVWGQGTTVTVSS
VL: DIVLTQSPDITAASLGQKVTITCSASSSVSYMHWYQQKSGTSPKPWIFEISKLASGVPARFSGSGSGTSYSLTISSMEAEDAAIYYCQQWNYPFTFGGGTKLEIKR
notes: Made in the same way as H2BL2 (293F cells, protein A); also called ATN615溶液
Take B2: in assay [2], the dissociation constant Kd is 7.45 nM, the off-rate constant (koff) came to 0.000576 s⁻¹ and the on-rate constant (kon) came out at 77300 M⁻¹ s⁻¹.
